Laboratory results taken from doi:10.1101/2024.09.05.611129 (bioRxiv, 2024).

Biological target: the molecule itself
Test: SEC

B1: Mycobacterium tuberculosis catalase-peroxidase KatG (enzyme)
chain: MPEQHPPITETTTGAASNGCPVVGHMKYPVEGGGNQDWWPNRLNLKVLHQNPAVADPMGAAFDYAAEVATIDVDALTRDIEEVMTTSQPWWPADYGHYGPLFIRMAWHAAGTYRIHDGRGGAGGGMQRFAPLNSWPDNASLDKARRLLWPVKKKYGKKLSWADLIVFAGNCALESMGFKTFGFGFGRVDQWEPDEVYWGKEATWLGDERYSGKRDLENPLAAVQMGLIYVNPEGPNGNPDPMAAAVDIRETFRRMAMNDVETAALIVGGHTFGKTHGAGPADLVGPEPEAAPLEQMGLGWKSSYGTGTGKDAITSGIEVVWTNTPTKWDNSFLEILYGYEWELTKSPAGAWQYTAKDGAGAGTIPDPFGGPGRSPTMLATDLSLRVDPIYERITRRWLEHPEELADEFAKAWYKLIHRDMGPVARYLGPLVPKQTLLWQDPVPAVSHDLVGEAEIASLKSQIRASGLTVSQLVSTAWAAASSFRGSDKRGGANGGRIRLQPQVGWEVNDPDGDLRKVIRTLEEIQESFNSAAPGNIKVSFADLVVLGGCAAIEKAAKAAGHNITVPFTPGRTDASQEQTDVESFAVLEPKADGFRNYLGKGNPLPAEYMLLDKANLLTLSAPEMTVLVGGLRVLGANYKRLPLGVFTEASESLTNDFFVNLLDMGITWEPSPADDGTYQGKDGSGKVKWTGSRVDLVFGSNSELRALVEVYGADDAQPKFVQDFVAAWDKVMNLDRFDVR
For B1, the “stoichiometry N” value was 2.
